Here are results for 55 variants from the Human Domainome abundance scans (Beltran et al. 2025).

The labels stand for the following.
B1: Pyruvate dehydrogenase protein X component, mitochondrial, residues 181 to 227; numbered along this chain, O00330 (parent)
chain: RFRLSPAARNILEKHSLDASQGTATGPRGIFTKEDALKLVQLKQTGK

± gives the uncertainty stated by the source.

In the data set the parent is B1. Briefly: abundance fitness (aPCA) (normalised: wild type 0, dead -1); higher = more abundant; growth selection in yeast, the domain comes from the species named. The conditions noted are these: Homo sapiens.
RFRLSPAARNILEKHSLDASQGTHTGPRGIFTKEDALKLVQLKQTGK: the abundance fitness is -0.454 ± 0.053.
With RFRLSPAARNILEKHSLDASQGTSTGPRGIFTKEDALKLVQLKQTGK the figure was -0.271 ± 0.059.
Consider RFRLSPAARNILEKHSLDASQGTVTGPRGIFTKEDALKLVQLKQTGK, for which the abundance fitness is -0.476 ± 0.055.
As for RFRLSPAARNILEKHSLDASQGTTTGPRGIFTKEDALKLVQLKQTGK, the abundance fitness was -0.423 ± 0.051.
For RFRLSPAARNILEKHSLDASQGTGTGPRGIFTKEDALKLVQLKQTGK, the abundance fitness is -0.331 ± 0.068.
With RFRLSPAARNILEKHSLDASQGTETGPRGIFTKEDALKLVQLKQTGK the figure was -0.333 ± 0.082.
With RFRLSPAARNILEKHSLDASQGTNTGPRGIFTKEDALKLVQLKQTGK the figure was -0.31 ± 0.07.
With RFRLSPAARNILEKHSLDASQGTFTGPRGIFTKEDALKLVQLKQTGK the figure was -0.667 ± 0.086; with RFRLSPAARNILEKHSLDASQGTLTGPRGIFTKEDALKLVQLKQTGK, -0.532 ± 0.051.
For RFRLSPAARNILEKHSLDASQGTKTGPRGIFTKEDALKLVQLKQTGK, the abundance fitness was -0.638 ± 0.13.
With RFRLSPAARNILEKHSLDASQGTYTGPRGIFTKEDALKLVQLKQTGK the figure was -1.07 ± 0.25.
As to RFRLSPAARNILEKHSLDASQGTQTGPRGIFTKEDALKLVQLKQTGK, the abundance fitness was -0.597 ± 0.11.
Regarding RFRLSPAARNILEKHSLDASQGTPTGPRGIFTKEDALKLVQLKQTGK, the abundance fitness was -0.191 ± 0.069.
RFRLSPAARNILEKHSLDASQGTATGPRRIFTKEDALKLVQLKQTGK: the abundance fitness was -0.526 ± 0.052.
As to RFRLSPAARNILEKHSLDASQGTATGPRLIFTKEDALKLVQLKQTGK, the abundance fitness is -0.609 ± 0.049.
With RFRLSPAARNILEKHSLDASQGTATGPRNIFTKEDALKLVQLKQTGK, the abundance fitness was -0.395 ± 0.11.
With RFRLSPAARNILEKHSLDASQGTATGPRSIFTKEDALKLVQLKQTGK the figure was -0.435 ± 0.069; with RFRLSPAARNILEKHSLDASQGTATGPRYIFTKEDALKLVQLKQTGK, -1.01 ± 0.18; with RFRLSPAARNILEKHSLDASQGTATGPRQIFTKEDALKLVQLKQTGK, -0.418 ± 0.051.
With RFRLSPAARNILEKHSLDASQGTATGPRCIFTKEDALKLVQLKQTGK the figure was -0.706 ± 0.12.
For the variant RFRLSPAARNILEKHSLDASQGTATGPRWIFTKEDALKLVQLKQTGK, the abundance fitness was -0.892 ± 0.057.
On to RFRLSPAARNILEKHSLDASQGTATGPRFIFTKEDALKLVQLKQTGK, for which the abundance fitness was -1.05 ± 0.28.
RFRLSPAARNILEKHSLDASQGTATGPRTIFTKEDALKLVQLKQTGK: the abundance fitness was -0.788 ± 0.082.
With RFRLSPAARNILEKHSLDASQGTATGPRPIFTKEDALKLVQLKQTGK the figure was -0.569 ± 0.071; with RFRLSPAARNILEKHSLDASQGTATGPRDIFTKEDALKLVQLKQTGK, -0.101 ± 0.11; with RFRLSPAARNILEKHSLDASQGTATGPRHIFTKEDALKLVQLKQTGK, -0.773 ± 0.15.
For RFRLSPAARNILEKHSLDASQGTATGPREIFTKEDALKLVQLKQTGK, the abundance fitness is -0.226 ± 0.063.
With RFRLSPAARNILEKHSLDASQGTATGPRMIFTKEDALKLVQLKQTGK the figure was -0.447 ± 0.1; with RFRLSPAARNILEKHSLDASQGTATGPRIIFTKEDALKLVQLKQTGK, -0.349 ± 0.11; with RFRLSPAARNILEKHSLDASQGTATGPRVIFTKEDALKLVQLKQTGK, -0.807 ± 0.067.
With RFRLSPAARNILEKHSLDASQGTATGCRGIFTKEDALKLVQLKQTGK the figure was -0.323 ± 0.067.
With RFRLSPAARNILEKHSLDASQGTATGSRGIFTKEDALKLVQLKQTGK the figure was -0.213 ± 0.043; with RFRLSPAARNILEKHSLDASQGTATGRRGIFTKEDALKLVQLKQTGK, -0.363 ± 0.046.
As to RFRLSPAARNILEKHSLDASQGTATGERGIFTKEDALKLVQLKQTGK, the abundance fitness is -0.131 ± 0.059.
With RFRLSPAARNILEKHSLDASQGTATGNRGIFTKEDALKLVQLKQTGK the figure was -0.426 ± 0.059; with RFRLSPAARNILEKHSLDASQGTATGKRGIFTKEDALKLVQLKQTGK, -0.146 ± 0.063.
As for RFRLSPAARNILEKHSLDASQGTATGYRGIFTKEDALKLVQLKQTGK, the abundance fitness is -0.689 ± 0.13.
With RFRLSPAARNILEKHSLDASQGTATGHRGIFTKEDALKLVQLKQTGK the figure was -0.309 ± 0.058; with RFRLSPAARNILEKHSLDASQGTATGLRGIFTKEDALKLVQLKQTGK, -0.599 ± 0.069.
With RFRLSPAARNILEKHSLDASQGTATGTRGIFTKEDALKLVQLKQTGK the figure was -0.167 ± 0.069; with RFRLSPAARNILEKHSLDASQGTATGIRGIFTKEDALKLVQLKQTGK, -0.547 ± 0.11.
With RFRLSPAARNILEKHSLDASQGTATGWRGIFTKEDALKLVQLKQTGK the figure was -0.682 ± 0.079; with RFRLSPAARNILEKHSLDASQGTATGGRGIFTKEDALKLVQLKQTGK, -0.491 ± 0.057.
Consider RFRLSPAARNILEKHSLDASQGTATGDRGIFTKEDALKLVQLKQTGK, for which the abundance fitness was -0.022 ± 0.07.
With RFRLSPAARNILEKHSLDASQGTATGFRGIFTKEDALKLVQLKQTGK the figure was -0.655 ± 0.14; with RFRLSPAARNILEKHSLDASQGTATGQRGIFTKEDALKLVQLKQTGK, -0.221 ± 0.056.
With RFRLSPAARNILEKHSLDASQGTATGVRGIFTKEDALKLVQLKQTGK the figure was -0.515 ± 0.058; with RFRLSPAARNILEKHSLDASQGTAFGPRGIFTKEDALKLVQLKQTGK, -0.697 ± 0.082; with RFRLSPAARNILEKHSLDASQGTAQGPRGIFTKEDALKLVQLKQTGK, -0.522 ± 0.052.
With RFRLSPAARNILEKHSLDASQGTACGPRGIFTKEDALKLVQLKQTGK the figure was -0.423 ± 0.095.
As to RFRLSPAARNILEKHSLDASQGTAKGPRGIFTKEDALKLVQLKQTGK, the abundance fitness was -0.414 ± 0.1.
With RFRLSPAARNILEKHSLDASQGTAMGPRGIFTKEDALKLVQLKQTGK the figure was -0.423 ± 0.072; with RFRLSPAARNILEKHSLDASQGTARGPRGIFTKEDALKLVQLKQTGK, -0.563 ± 0.053; with RFRLSPAARNILEKHSLDASQGTAYGPRGIFTKEDALKLVQLKQTGK, -0.86 ± 0.13.
With RFRLSPAARNILEKHSLDASQGTAGGPRGIFTKEDALKLVQLKQTGK the figure was -0.445 ± 0.046.
